Measured values from paper PMC12808100 (2025).
Where two headings read alike, the source gives them in different places. *: point of attachment. Biotin = O=C1N[C@H]2[C@H](CS[C@H]2CCCCC(=O)*)N1; TTDS = Trioxatridecan-succinamic acid linker

Legend:
[1] = biological target: T1, catalytic subunit of DNA polymerase ε (POLE), endogenous (human (endogenous in Jurkat and in …, UniProt Q07864 1-2286)); test: nHU, apparent Kd
[2] = biological target: His6-AviTag-MBP-TEV-POLE2 (human, UniProt P56282 1-527, biotin on the AviTag (BirA co-expressed, biotin in the medium)); test: nHU, apparent Kd
[3] = biological target: HA-MBP-POLE2 (human, UniProt P56282 1-527); test: nHU in cell extract, apparent Kd, f = 0.37
[4] = biological target: HA-POLE2 (human, UniProt P56282 1-527); test: nHU, apparent Kd, f = 0.82
[5] = biological target: T1, catalytic subunit of DNA polymerase ε …; test: nHU, apparent Kd; remark: listed apart in the source

Chain of His6-AviTag-MBP-TEV-POLE2 (P56282 whole entry): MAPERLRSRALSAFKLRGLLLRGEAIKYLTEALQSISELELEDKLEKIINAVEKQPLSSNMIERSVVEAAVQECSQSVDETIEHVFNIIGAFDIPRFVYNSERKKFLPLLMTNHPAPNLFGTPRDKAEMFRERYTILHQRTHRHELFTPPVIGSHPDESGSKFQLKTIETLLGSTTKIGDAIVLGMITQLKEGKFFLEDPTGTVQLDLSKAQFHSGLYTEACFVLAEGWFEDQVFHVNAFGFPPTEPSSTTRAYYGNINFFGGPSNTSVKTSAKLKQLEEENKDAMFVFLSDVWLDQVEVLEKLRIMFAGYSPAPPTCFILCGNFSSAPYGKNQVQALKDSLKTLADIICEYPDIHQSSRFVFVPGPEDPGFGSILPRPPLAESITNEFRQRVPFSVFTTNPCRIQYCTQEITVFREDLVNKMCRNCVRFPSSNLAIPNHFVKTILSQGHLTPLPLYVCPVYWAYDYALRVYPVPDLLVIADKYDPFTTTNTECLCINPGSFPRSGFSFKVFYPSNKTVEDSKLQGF
T1 sequence (Q07864 whole entry): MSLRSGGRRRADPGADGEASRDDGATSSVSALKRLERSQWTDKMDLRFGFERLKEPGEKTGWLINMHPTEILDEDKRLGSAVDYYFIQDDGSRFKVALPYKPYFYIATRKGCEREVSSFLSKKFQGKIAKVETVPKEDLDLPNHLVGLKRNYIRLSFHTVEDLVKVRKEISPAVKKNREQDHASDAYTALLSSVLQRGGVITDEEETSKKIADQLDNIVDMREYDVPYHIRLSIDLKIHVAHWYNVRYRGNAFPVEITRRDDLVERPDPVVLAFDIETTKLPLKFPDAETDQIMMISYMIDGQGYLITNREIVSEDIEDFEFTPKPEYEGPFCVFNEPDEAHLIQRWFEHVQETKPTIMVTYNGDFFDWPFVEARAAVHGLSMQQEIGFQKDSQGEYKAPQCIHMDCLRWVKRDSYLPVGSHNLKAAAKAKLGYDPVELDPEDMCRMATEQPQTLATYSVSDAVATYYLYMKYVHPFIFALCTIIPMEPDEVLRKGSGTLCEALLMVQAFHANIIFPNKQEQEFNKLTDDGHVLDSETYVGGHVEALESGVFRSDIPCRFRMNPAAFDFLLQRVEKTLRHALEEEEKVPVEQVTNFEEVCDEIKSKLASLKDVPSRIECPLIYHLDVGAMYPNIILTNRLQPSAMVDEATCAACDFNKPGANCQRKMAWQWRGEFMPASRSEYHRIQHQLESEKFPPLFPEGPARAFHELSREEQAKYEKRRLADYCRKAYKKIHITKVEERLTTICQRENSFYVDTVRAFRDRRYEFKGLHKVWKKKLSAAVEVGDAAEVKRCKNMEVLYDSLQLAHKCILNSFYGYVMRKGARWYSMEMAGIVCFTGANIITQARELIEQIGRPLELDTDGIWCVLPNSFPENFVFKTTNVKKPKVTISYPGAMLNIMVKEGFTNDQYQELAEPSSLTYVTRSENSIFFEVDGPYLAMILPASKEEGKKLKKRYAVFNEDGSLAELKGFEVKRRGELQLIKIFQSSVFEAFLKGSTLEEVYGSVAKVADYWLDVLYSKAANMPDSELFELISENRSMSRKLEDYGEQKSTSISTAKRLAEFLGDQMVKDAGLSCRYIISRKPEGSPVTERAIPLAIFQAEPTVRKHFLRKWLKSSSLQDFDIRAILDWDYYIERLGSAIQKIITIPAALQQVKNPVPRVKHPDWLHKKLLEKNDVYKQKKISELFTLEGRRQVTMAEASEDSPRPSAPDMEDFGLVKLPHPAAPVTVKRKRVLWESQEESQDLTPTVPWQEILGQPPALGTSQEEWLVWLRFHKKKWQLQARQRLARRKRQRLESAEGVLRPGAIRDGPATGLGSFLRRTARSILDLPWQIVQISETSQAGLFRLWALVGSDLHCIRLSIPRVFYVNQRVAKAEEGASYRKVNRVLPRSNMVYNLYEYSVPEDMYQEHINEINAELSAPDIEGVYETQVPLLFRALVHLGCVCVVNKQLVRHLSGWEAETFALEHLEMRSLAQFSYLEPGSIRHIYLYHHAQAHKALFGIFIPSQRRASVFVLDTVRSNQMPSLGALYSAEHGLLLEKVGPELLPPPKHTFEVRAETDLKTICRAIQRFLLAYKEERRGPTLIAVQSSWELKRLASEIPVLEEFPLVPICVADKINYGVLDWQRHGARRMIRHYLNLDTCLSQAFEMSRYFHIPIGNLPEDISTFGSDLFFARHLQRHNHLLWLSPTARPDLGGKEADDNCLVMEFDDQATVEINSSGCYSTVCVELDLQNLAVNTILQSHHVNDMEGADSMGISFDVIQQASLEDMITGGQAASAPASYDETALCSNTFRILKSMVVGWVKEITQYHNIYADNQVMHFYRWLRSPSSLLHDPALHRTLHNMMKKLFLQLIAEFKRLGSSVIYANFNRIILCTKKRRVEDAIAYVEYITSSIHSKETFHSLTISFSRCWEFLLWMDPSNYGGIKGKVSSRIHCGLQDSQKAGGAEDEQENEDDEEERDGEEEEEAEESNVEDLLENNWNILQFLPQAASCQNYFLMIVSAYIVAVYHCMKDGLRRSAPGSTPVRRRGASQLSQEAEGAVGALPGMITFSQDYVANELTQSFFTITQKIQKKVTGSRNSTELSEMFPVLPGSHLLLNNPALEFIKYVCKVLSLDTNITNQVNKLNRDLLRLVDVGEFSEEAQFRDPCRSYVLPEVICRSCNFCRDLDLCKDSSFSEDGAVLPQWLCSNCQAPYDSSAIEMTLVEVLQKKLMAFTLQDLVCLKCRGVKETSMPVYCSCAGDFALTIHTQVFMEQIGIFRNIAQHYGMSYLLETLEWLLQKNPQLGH
Chain of HA-MBP-POLE2 (P56282 whole entry): as the sequence (P56282 whole entry) above
Chain of HA-POLE2 (P56282 whole entry): as above

B1: NPF motif peptide of TTF2 (residues 116-143) (peptide)
peptide: HHSSNWLRNPFKVLDKNQEPALWKQLIK
HELM: PEPTIDE1{[O=C1N[C@H]2[C@H](CS[C@H]2CCCCC(=O)[*:2])N1].[O=C(CCCCCN[*:1])[*:2]].H.H.S.S.N.W.L.R.N.P.F.K.V.L.D.K.N.Q.E.P.A.L.W.K.Q.L.I.K.[am]}$$$$V2.0
SMILES: CC[C@H](C)[C@H](NC(=O)[C@H](CC(C)C)NC(=O)[C@H](CCC(N)=O)NC(=O)[C@H](CCCCN)NC(=O)[C@H](Cc1c[nH]c2ccccc12)NC(=O)[C@H](CC(C)C)NC(=O)[C@H](C)NC(=O)[C@@H]1CCCN1C(=O)[C@H](CCC(=O)O)NC(=O)[C@H](CCC(N)=O)NC(=O)[C@H](CC(N)=O)NC(=O)[C@H](CCCCN)NC(=O)[C@H](CC(=O)O)NC(=O)[C@H](CC(C)C)NC(=O)[C@@H](NC(=O)[C@H](CCCCN)NC(=O)[C@H](Cc1ccccc1)NC(=O)[C@@H]1CCCN1C(=O)[C@H](CC(N)=O)NC(=O)[C@H](CCCNC(=N)N)NC(=O)[C@H](CC(C)C)NC(=O)[C@H](Cc1c[nH]c2ccccc12)NC(=O)[C@H](CC(N)=O)NC(=O)[C@H](CO)NC(=O)[C@H](CO)NC(=O)[C@H](Cc1c[nH]cn1)NC(=O)[C@H](Cc1c[nH]cn1)NC(=O)CCCCCNC(=O)CCCC[C@@H]1SC[C@@H]2NC(=O)N[C@@H]21)C(C)C)C(=O)N[C@@H](CCCCN)C(N)=O
A Kd [1] of 720 nM was found for B1 in this work.

B2: HA-WDHD1, full length, intact NPF motif (natural protein)
chain: MPATRKPMRYGHTEGHTEVCFDDSGSFIVTCGSDGDVRIWEDLDDDDPKFINVGEKAYSCALKSGKLVTAVSNNTIQVHTFPEGVPDGILTRFTTNANHVVFNGDGTKIAAGSSDFLVKIVDVMDSSQQKTFRGHDAPVLSLSFDPKDIFLASASCDGSVRVWQISDQTCAISWPLLQKCNDVINAKSICRLAWQPKSGKLLAIPVEKSVKLYRRESWSHQFDLSDNFISQTLNIVTWSPCGQYLAAGSINGLIIVWNVETKDCMERVKHEKGYAICGLAWHPTCGRISYTDAEGNLGLLENVCDPSGKTSSSKVSSRVEKDYNDLFDGDDMSNAGDFLNDNAVEIPSFSKGIINDDEDDEDLMMASGRPRQRSHILEDDENSVDISMLKTGSSLLKEEEEDGQEGSIHNLPLVTSQRPFYDGPMPTPRQKPFQSGSTPLHLTHRFMVWNSIGIIRCYNDEQDNAIDVEFHDTSIHHATHLSNTLNYTIADLSHEAILLACESTDELASKLHCLHFSSWDSSKEWIIDLPQNEDIEAICLGQGWAAAATSALLLRLFTIGGVQKEVFSLAGPVVSMAGHGEQLFIVYHRGTGFDGDQCLGVQLLELGKKKKQILHGDPLPLTRKSYLAWIGFSAEGTPCYVDSEGIVRMLNRGLGNTWTPICNTREHCKGKSDHYWVVGIHENPQQLRCIPCKGSRFPPTLPRPAVAILSFKLPYCQIATEKGQMEEQFWRSVIFHNHLDYLAKNGYEYEESTKNQATKEQQELLMKMLALSCKLEREFRCVELADLMTQNAVNLAIKYASRSRKLILAQKLSELAVEKAAELTATQVEEEEEEEDFRKKLNAGYSNTATEWSQPRFRNQVEEDAEDSGEADDEEKPEIHKPGQNSFSKSTNSSDVSAKSGAVTFSSQGRVNPFKVSASSKEPAMSMNSARSTNILDNMGKSSKKSTALSRTTNNEKSPIIKPLIPKPKPKQASAASYFQKRNSQTNKTEEVKEENLKNVLSETPAICPPQNTENQRPKTGFQMWLEENRSNILSDNPDFSDEADIIKEGMIRFRVLSTEERKVWANKAKGETASEGTEAKKRKRVVDESDETENQEEKAKENLNLSKKQKPLDFSTNQKLSAFAFKQE
A Kd [2] of 70 nM was found for B2 in this work.

B3: HA-TTF2, full length, intact NPF motifs (natural protein)
chain: MEEVRCPEHGTFCFLKTGVRDGPNKGKSFYVCRADTCSFVRATDIPVSHCLLHEDFVVELQGLLLPQDKKEYRLFFRCIRSKAEGKRWCGSIPWQDPDSKEHSVSNKSQHASETFHHSSNWLRNPFKVLDKNQEPALWKQLIKGEGEEKKADKKQREKGDQLFDQKKEQKPEMMEKDLSSGLVPKKKQSVVQEKKQEEGAEIQCEAETGGTHKRDFSEIKSQQCQGNELTRPSASSQEKSSGKSQDVQRESEPLREKVTQLLPQNVHSHNSISKPQKGGPLNKEYTNWEAKETKAKDGPSIQATQKSLPQGHFQERPETHSVPAPGGPAAQAAPAAPGLSLGEGREAATSSDDEEEDDVVFVSSKPGSPLLFDSTLDLETKENLQFPDRSVQRKVSPASGVSKKVEPSDPVARRVYLTTQLKQKKSTLASVNIQALPDKGQKLIKQIQELEEVLSGLTLSPEQGTNEKSNSQVPQQSHFTKTTTGPPHLVPPQPLPRRGTQPVGSLELKSACQVTAGGSSQCYRGHTNQDHVHAVWKITSEAIGQLHRSLESCPGETVVAEDPAGLKVPLLLHQKQALAWLLWRESQKPQGGILADDMGLGKTLTMIALILTQKNQEKKEEKEKSTALTWLSKDDSCDFTSHGTLIICPASLIHHWKNEVEKRVNSNKLRVYLYHGPNRDSRARVLSTYDIVITTYSLVAKEIPTNKQEAEIPGANLNVEGTSTPLLRIAWARIILDEAHNVKNPRVQTSIAVCKLQACARWAVTGTPIQNNLLDMYSLLKFLRCSPFDEFNLWRSQVDNGSKKGGERLSILTKSLLLRRTKDQLDSTGRPLVILPQRKFQLHHLKLSEDEETVYNVFFARSRSALQSYLKRHESRGNQSGRSPNNPFSRVALEFGSEEPRHSEAADSPRSSTVHILSQLLRLRQCCCHLSLLKSALDPMELKGEGLVLSLEEQLSALTLSELRDSEPSSTVSLNGTFFKMELFEGMRESTKISSLLAELEAIQRNSASQKSVIVSQWTNMLKVVALHLKKHGLTYATIDGSVNPKQRMDLVEAFNHSRGPQVMLISLLAGGVGLNLTGGNHLFLLDMHWNPSLEDQACDRIYRVGQQKDVVIHRFVCEGTVEEKILQLQEKKKDLAKQVLSGSGESVTKLTLADLRVLFGI
A Kd [2] of 300 nM was found for B3 in this work.

A Kd [3] of 1300 nM and a Kd [4] of 520 nM were found for {Biotin-TTDS}-GPAAARRNPFARLDNRPR-NH2 [NPF motif peptide of DONSON (residues 71-88)] in this work.

B4: NPF motif peptide of WDHD1 (residues 906-924) (peptide)
peptide: SSQGRVNPFKVSASSKEPA
HELM: PEPTIDE1{[O=C1N[C@H]2[C@H](CS[C@H]2CCCCC(=O)[*:2])N1].[O=C(CCCCCN[*:1])[*:2]].S.S.Q.G.R.V.N.P.F.K.V.S.A.S.S.K.E.P.A.[am]}$$$$V2.0
SMILES: CC(C)[C@H](NC(=O)[C@H](CCCCN)NC(=O)[C@H](Cc1ccccc1)NC(=O)[C@@H]1CCCN1C(=O)[C@H](CC(N)=O)NC(=O)[C@@H](NC(=O)[C@H](CCCNC(=N)N)NC(=O)CNC(=O)[C@H](CCC(N)=O)NC(=O)[C@H](CO)NC(=O)[C@H](CO)NC(=O)CCCCCNC(=O)CCCC[C@@H]1SC[C@@H]2NC(=O)N[C@@H]21)C(C)C)C(=O)N[C@@H](CO)C(=O)N[C@@H](C)C(=O)N[C@@H](CO)C(=O)N[C@@H](CO)C(=O)N[C@@H](CCCCN)C(=O)N[C@@H](CCC(=O)O)C(=O)N1CCC[C@H]1C(=O)N[C@@H](C)C(N)=O
A Kd [1] of 14000 nM was found for B4 in this work.

B5: NPF motif peptide of POLA1 (residues 177-206) (peptide)
peptide: PVMILKKKRSIGASPNPFSVHTATAVPSGK
HELM: PEPTIDE1{[O=C1N[C@H]2[C@H](CS[C@H]2CCCCC(=O)[*:2])N1].[O=C(CCCCCN[*:1])[*:2]].P.V.M.I.L.K.K.K.R.S.I.G.A.S.P.N.P.F.S.V.H.T.A.T.A.V.P.S.G.K.[am]}$$$$V2.0
SMILES: CC[C@H](C)[C@H](NC(=O)[C@H](CO)NC(=O)[C@H](CCCNC(=N)N)NC(=O)[C@H](CCCCN)NC(=O)[C@H](CCCCN)NC(=O)[C@H](CCCCN)NC(=O)[C@H](CC(C)C)NC(=O)[C@@H](NC(=O)[C@H](CCSC)NC(=O)[C@@H](NC(=O)[C@@H]1CCCN1C(=O)CCCCCNC(=O)CCCC[C@@H]1SC[C@@H]2NC(=O)N[C@@H]21)C(C)C)[C@@H](C)CC)C(=O)NCC(=O)N[C@@H](C)C(=O)N[C@@H](CO)C(=O)N1CCC[C@H]1C(=O)N[C@@H](CC(N)=O)C(=O)N1CCC[C@H]1C(=O)N[C@@H](Cc1ccccc1)C(=O)N[C@@H](CO)C(=O)N[C@H](C(=O)N[C@@H](Cc1c[nH]cn1)C(=O)N[C@H](C(=O)N[C@@H](C)C(=O)N[C@H](C(=O)N[C@@H](C)C(=O)N[C@H](C(=O)N1CCC[C@H]1C(=O)N[C@@H](CO)C(=O)NCC(=O)N[C@@H](CCCCN)C(N)=O)C(C)C)[C@@H](C)O)[C@@H](C)O)C(C)C
A Kd [5] of 2500 nM was found for B5 in this work.

B6: HA-ERCC6L, full length, intact NPF motif (natural protein)
chain: MEASRRFPEAEALSPEQAAHYLRYVKEAKEATKNGDLEEAFKLFNLAKDIFPNEKVLSRIQKIQEALEELAEQGDDEFTDVCNSGLLLYRELHNQLFEHQKEGIAFLYSLYRDGRKGGILADDMGLGKTVQIIAFLSGMFDASLVNHVLLIMPTNLINTWVKEFIKWTPGMRVKTFHGPSKDERTRNLNRIQQRNGVIITTYQMLINNWQQLSSFRGQEFVWDYVILDEAHKIKTSSTKSAICARAIPASNRLLLTGTPIQNNLQELWSLFDFACQGSLLGTLKTFKMEYENPITRAREKDATPGEKALGFKISENLMAIIKPYFLRRTKEDVQKKKSSNPEARLNEKNPDVDAICEMPSLSRKNDLIIWIRLVPLQEEIYRKFVSLDHIKELLMETRSPLAELGVLKKLCDHPRLLSARACCLLNLGTFSAQDGNEGEDSPDVDHIDQVTDDTLMEESGKMIFLMDLLKRLRDEGHQTLVFSQSRQILNIIERLLKNRHFKTLRIDGTVTHLLEREKRINLFQQNKDYSVFLLTTQVGGVGLTLTAATRVVIFDPSWNPATDAQAVDRVYRIGQKENVVVYRLITCGTVEEKIYRRQVFKDSLIRQTTGEKKNPFRYFSKQELRELFTIEDLQNSVTQLQLQSLHAAQRKSDIKLDEHIAYLQSLGIAGISDHDLMYTCDLSVKEELDVVEESHYIQQRVQKAQFLVEFESQNKEFLMEQQRTRNEGAWLREPVFPSSTKKKCPKLNKPQPQPSPLLSTHHTQEEDISSKMASVVIDDLPKEGEKQDLSSIKVNVTTLQDGKGTGSADSIATLPKGFGSVEELCTNSSLGMEKSFATKNEAVQKETLQEGPKQEALQEDPLESFNYVLSKSTKADIGPNLDQLKDDEILRHCNPWPIISITNESQNAESNVSIIEIADDLSASHSALQDAQASEAKLEEEPSASSPQYACDFNLFLEDSADNRQNFSSQSLEHVEKENSLCGSAPNSRAGFVHSKTCLSWEFSEKDDEPEEVVVKAKIRSKARRIVSDGEDEDDSFKDTSSINPFNTSLFQFSSVKQFDASTPKNDISPPGRFFSSQIPSSVNKSMNSRRSLASRRSLINMVLDHVEDMEERLDDSSEAKGPEDYPEEGVEESSGEASKYTEEDPSGETLSSENKSSWLMTSKPSALAQETSLGAPEPLSGEQLVGSPQDKAAEATNDYETLVKRGKELKECGKIQEALNCLVKALDIKSADPEVMLLTLSLYKQLNNN
A Kd [2] of 2400 nM was found for B6 in this work.
